Common to all, as to type: cell-based, mice
Assay [1] concerns unfractionated BMMNCs. Kind of assay: Proliferation of unfractionated BMMNCs (Trypan blue cell count). The settings on record: cultures initiated with 10^4 cells. The procedure: Assessment of cellular proliferation. To study proliferation within each experimental group, unfractionated BMMNCs (n=1×10^4) were cultured as above in separate experiments (see FIG. 9A). Cells were monitored by phase contrast microscopy during culture in a humidified 5% CO2 incubator at 37° C. for up to 21 days. The medium was replenished every 6 days and expanded cells were harvested by trypsinization and gentle resuspension on days 8, 16, and 21. Cell number and viability was determined by Trypan blue staining, and the fold-increase in cell number over time was analyzed.

Assay [2] concerns unfractionated BMMNCs. Kind of assay: qRT-PCR of cardiac-specific mRNA levels in cultured BMMNCs. The settings on record: 21 days of culture. An excerpt: Induction of differentiation. To assess the influence of ectopic expression of Wnt11 on BMMNC differentiation, Wnt11 conditioned medium (Wnt11-CM) was generated. Specifically, unfractionated BMMNCs were co-cultured with Wnt11-expressing HEK-293 cells (Wnt11/293-2; designated as Wnt11-CM), under the same conditions used to culture BMMNCs. In order to achieve strict separation of cell types during co-culture experiments, BMMNC and Wnt11/293 cells were separated into upper and lower chambers of a TRANSWELL® co-culture system. […]
Assessment of mRNA expression by quantitative real-time RT-PCR (qRT-PCR). […] Prior to mRNA extraction, cell number was determined and calculated by Trypan blue exclusion. cDNA was generated from freshly isolated (designated as baseline) and cultured unfractionated BMMNCs at days 0, 3, 7, and 21 (see FIG. 9A) using QUANTISCRIPT REVERSE TRANSCRIPTASE™ (Qiagen Inc., Valencia, Calif., United States of America) contained in RT master mix of Cell to cDNA kits according to manufacturer's protocol. […]
To avoid amplification of contaminating DNA, all validated qRT-PCR primers were designed to cross […] sequences within the cDNA to be amplified. Quantitative qRT-PCR analysis was performed in an ABI Prism 7900H sequence detection system (Applied Biosystems, Foster City, Calif.) using QUANTITECT™ SYBR® Green Real Time PCR kits. […]

In assay [3] the test system is unfractionated BMMNCs. Kind of assay: qRT-PCR of pluripotency markers Oct-4 and Nanog in cultured BMMNCs. Conditions: BMMNCs cultured 21 days, 150 ng/ml; normalized to 18S rRNA. An excerpt:
Isolation and culture of unfractionated BM-derived mononuclear cells (BMMNCs). For each experiment, two mice were euthanized by CO2 inhalation followed by cervical dislocation and their femurs and tibias were removed and placed in Dulbecco's Modified Eagle Medium/F12 (DMEM/F12; Invitrogen Corp.). The bones were stripped of soft tissue with fine forceps exposing the long bone shafts. The BM was flushed into and suspended in fresh DMEM/F12 using a 23-gauge needle and 5-ml syringe. The BM was further dispersed by repeated passage through the 23-gauge needle for 10 minutes.
After filtering cells through a 70 μm nylon mesh filter, the MNC fraction (BMMNCs) were separated using FICOLL-PAQUE™ (Sigma Aldrich, St. Louis, Mo., United States of America) density-gradient centrifugation as described in (Zuba-Surma et al., 2006). See also FIG. 9A. The viability of unfractionated BMMNCs was assessed by Trypan blue (Sigma Aldrich) staining. Approximately 15×10^6 unfractionated BMMNCs were obtained from each mouse. Adult unfractionated BMMNCs were seeded (n=5×10^5 cells/well) in 6-well tissue culture plates (lower chamber of a 6-well tissue culture TRANSWELL® system; Corning Inc. Life Sciences, Lowell, Mass., United States of America) on fibronectin (FN)-coated glass coverslips (Fischer Scientific). […]
Assessment of mRNA expression by quantitative real-time RT-PCR (qRT-PCR). […]
Background: In qPCR the cycle at which signal appears reflects the starting amount.

B1: Wnt3a: recombinant Wnt3a protein, canonical Wnt, used at 150 ng/ml (protein, UniProt P56704 19-352, looked up)
Protein Wnt-3a: SYPIWWSLAVGPQYSSLGSQPILCASIPGLVPKQLRFCRNYVEIMPSVAEGIKIGIQECQHQFRGRRWNCTTVHDSLAIFGPVLDKATRESAFVHAIASAGVAFAVTRSCAEGTAAICGCSSRHQGSPGKGWKWGGCSEDIEFGGMVSREFADARENRPDARSAMNRHNNEAGRQAIASHMHLKCKCHGLSGSCEVKTCWWSQPDFRAIGDFLKDKYDSASEMVVEKHRESRGWVETLRPRYTYFKVPTERDLVYYEASPNFCEPNPETGSFGTRDRTCNVSSHGIDGCDLLCCGRGHNARAERRREKCRCVFHWCCYVSCQECTRVYDVHTCK
As for B1, the “increase in cell number” value is recorded as 110±0.1 fold in assay [1] (day 16) and 297±0.1 fold in assay [1] (day 21). Further, the cardiac-specific transcripts result in assay [2] is recorded as “no cardiac-specific transcripts were detected”. In assay [3], the “increase in Nanog mRNA expression compared with baseline” value worked out at 158±0.6 fold. The “increase in Oct-4 mRNA expression compared with baseline” value in assay [3] is recorded as 177±0.4 fold.

These data come from patent US20110052551A1, “CARDIAC MYOCYTE MORPHOGENIC COMPOSITIONS AND METHODS OF USE THEREFOR” (priority 2008, published 2011).
